Test results reported in the supplement of paper PMC9233669.
Variants at the floor of the assay were thinned out.

Legend:
biotinyl-Trp-oxazolone = experiment: self-aminoacylation, catalytic enhancement (BWO) (fold over background); higher = more active; k-Seq, kA / k0A0; sequences stand for … in GGGAAUGGAUCCACAUCUACGAAUUC…UUCACUGCAGACUUGACGAAGCUG
Method in brief: (§1)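 Working in 50 μL HEPES/NaCl/KCl/MgCl2/CaCl2 buffer with 5% acetonitrile at pH 6.9–7.0, mutagenized RNA pools (0.43 μM; 21-nt variable region) were reacted with 2–1250 μM of each biotinyl-aminoacyl-oxazolone for 90 minutes at room temperature. Streptavidin capture followed, with quantification by triplicate qPCR and Illumina sequencing. Catalytic enhancement is reported as median kA over the uncatalyzed rate, the low-activity peak of a bimodal Gaussian fit to the data.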

biotinyl-Phe-oxazolone = experiment: self-aminoacylation, catalytic enhancement (BFO) (fold over background); higher = more active; k-Seq, kA / k0A0; sequences stand for … in GGGAAUGGAUCCACAUCUACGAAUUC…UUCACUGCAGACUUGACGAAGCUG
Method in brief: as §1

biotinyl-Met-oxazolone = experiment: self-aminoacylation, catalytic enhancement (BMO) (fold over background); higher = more active; k-Seq, kA / k0A0; sequences stand for … in GGGAAUGGAUCCACAUCUACGAAUUC…UUCACUGCAGACUUGACGAAGCUG
Method in brief: as §1

biotinyl-Ile-oxazolone = experiment: self-aminoacylation, catalytic enhancement (BIO) (fold over background); higher = more active; k-Seq, kA / k0A0; sequences stand for … in GGGAAUGGAUCCACAUCUACGAAUUC…UUCACUGCAGACUUGACGAAGCUG
Method in brief: as §1

biotinyl-Leu-oxazolone = experiment: self-aminoacylation, catalytic enhancement (BLO) (fold over background); higher = more active; k-Seq, kA / k0A0; sequences stand for … in GGGAAUGGAUCCACAUCUACGAAUUC…UUCACUGCAGACUUGACGAAGCUG
Method in brief: as §1

biotinyl-Val-oxazolone = experiment: self-aminoacylation, catalytic enhancement (BVO) (fold over background); higher = more active; k-Seq, kA / k0A0; sequences stand for … in GGGAAUGGAUCCACAUCUACGAAUUC…UUCACUGCAGACUUGACGAAGCUG
Method in brief: as §1

| Sequence | self-aminoacylation (biotinyl-Trp-oxazolone) | self-aminoacylation (biotinyl-Phe-oxazolone) | self-aminoacylation (biotinyl-Met-oxazolone) | self-aminoacylation (biotinyl-Ile-oxazolone) | self-aminoacylation (biotinyl-Leu-oxazolone) | self-aminoacylation (biotinyl-Val-oxazolone) |
| --- | --- | --- | --- | --- | --- | --- |
| CUACUUCAAACAAUCGCUCUU [Fam1A.1 aminoacylation ribozyme variant] | 0.632 | 0.851 | 0.772 | 0.938 | 0.539 | 0.856 |
| CUACUUCAAACAAUCGGCCUG [Fam1A.1 aminoacylation ribozyme variant] | 48.1 | 85.3 | 1.87 | 1.69 | 2.86 | 1.78 |
| CUACUUCAAACAAUCGGGAUG [Fam1A.1 aminoacylation ribozyme variant] | 4.46 | 5.85 | 0.844 | 0.904 | 1.19 | 1.02 |
| CUACUUCAAACAAUCGGGCCG [Fam1A.1 aminoacylation ribozyme variant] | 1.22 | 1.76 | 1.19 | 1.53 | 1.32 | 0.974 |
| CUACUUCAAACAAUCGGGCUC [Fam1A.1 aminoacylation ribozyme variant] | 2.48 | 5.16 | 1.08 | 1.01 | 0.971 | 1.17 |
| CUACUUCAAACAAUCGGGCUU [Fam1A.1 aminoacylation ribozyme variant] | 1.3 | 1.14 | 1.12 | 1.55 | 0.955 | 1.32 |
| CUACUUCAAACAAUCGGGGUG [Fam1A.1 aminoacylation ribozyme variant] | 3.36 | 2.9 | 3.77 | 3.04 | 4.32 | 2.35 |
| CUACUUCAAACAAUCGGUCAA [Fam1A.1 aminoacylation ribozyme variant] | 2.24 | 6.72 | 0.695 | 0.846 | 0.712 | 0.996 |
| CUACUUCAAACAAUCGGUCCA [Fam1A.1 aminoacylation ribozyme variant] | 0.907 | 1.79 | 0.654 | 0.753 | 0.633 | 0.757 |
| CUACUUCAAACAAUCGGUGAG [Fam1A.1 aminoacylation ribozyme variant] | 0.907 | 1.5 | 1.19 | 0.901 | 1.05 | 1.03 |
| CUACUUCAAACAAUCGUACUG [Fam1A.1 aminoacylation ribozyme variant] | 0.573 | 1.35 | 0.419 | 0.519 | 0.389 | 0.533 |
| CUACUUCAAACAAUCGUCCUG [Fam1A.1 aminoacylation ribozyme variant] | 0.491 | 0.798 | 0.407 | 0.562 | 0.394 | 0.791 |
| CUACUUCAAACAAUCGUUCAG [Fam1A.1 aminoacylation ribozyme variant] | 0.523 | 0.81 | 0.566 | 0.658 | 0.497 | 0.769 |
| CUACUUCAAACAAUCUGCCUG [Fam1A.1 aminoacylation ribozyme variant] | 0.605 | 1.33 | 1.04 | 0.913 | 0.957 | 0.751 |
| CUACUUCAAACAAUCUUUCUG [Fam1A.1 aminoacylation ribozyme variant] | 2.33 | 5.42 | 0.771 | 0.747 | 0.658 | 0.898 |
| CUACUUCAAACAAUGGGGCUG [Fam1A.1 aminoacylation ribozyme variant] | 0.497 | 0.625 | 0.841 | 1.12 | 0.707 | 1.1 |
| CUACUUCAAACAAUUAGUCUG [Fam1A.1 aminoacylation ribozyme variant] | 0.684 | 1.04 | 0.662 | 0.891 | 0.712 | 0.901 |
| CUACUUCAAACAAUUGGCCUG [Fam1A.1 aminoacylation ribozyme variant] | 2.03 | 2.28 | 1.11 | 1.57 | 1.34 | 1.33 |
| CUACUUCAAACACUCGGACUG [Fam1A.1 aminoacylation ribozyme variant] | 1.32 | 0.435 | 1.01 | 1.11 | 0.89 | 1.2 |
| CUACUUCAAACACUCGGUCAG [Fam1A.1 aminoacylation ribozyme variant] | 0.721 | 0.496 | 0.878 | 0.907 | 0.833 | 0.958 |
| CUACUUCAAACACUCGGUGUG [Fam1A.1 aminoacylation ribozyme variant] | 1.63 | 4.18 | 1.72 | 1.81 | 1.5 | 1.59 |

| Sequence | self-aminoacylation (biotinyl-Trp-oxazolone) | self-aminoacylation (biotinyl-Phe-oxazolone) | self-aminoacylation (biotinyl-Met-oxazolone) | self-aminoacylation (biotinyl-Ile-oxazolone) | self-aminoacylation (biotinyl-Leu-oxazolone) | self-aminoacylation (biotinyl-Val-oxazolone) |
| --- | --- | --- | --- | --- | --- | --- |
| CUACUUCAAACACUCGUUCUG [Fam1A.1 aminoacylation ribozyme variant] | 0.444 | 0.429 | 0.499 | 0.595 | 0.492 | 0.635 |
| CUACUUCAAACACUCUGUCUG [Fam1A.1 aminoacylation ribozyme variant] | 0.678 | 0.709 | 0.608 | 0.797 | 0.547 | 0.724 |
| CUACUUCAAACAGUCGGUCUU [Fam1A.1 aminoacylation ribozyme variant] | 0.563 | 0.838 | 0.925 | 1.1 | 1.13 | 0.819 |
| CUACUUCAAACAUUCCGUCUG [Fam1A.1 aminoacylation ribozyme variant] | 1.22 | 0.631 | 0.79 | 1.15 | 1.19 | 1.2 |
| CUACUUCAAACAUUCGAUCUG [Fam1A.1 aminoacylation ribozyme variant] | 0.44 | 0.62 | 0.593 | 0.645 | 0.561 | 0.731 |
| CUACUUCAAACAUUCGGUCUG [Fam1A.1 aminoacylation ribozyme variant] | 0.904 | 0.828 | 0.904 | 0.994 | 0.892 | 1.01 |
| CUACUUCAAACAUUCGGUCUU [Fam1A.1 aminoacylation ribozyme variant] | 0.767 | 0.774 | 1.38 | 1.15 | 1.03 | 1.11 |
| CUACUUCAAACAUUCGUUCUG [Fam1A.1 aminoacylation ribozyme variant] | 0.504 | 0.513 | 0.669 | 0.713 | 0.659 | 0.706 |
| CUACUUCAAACCAUAGGUCUG [Fam1A.1 aminoacylation ribozyme variant] | 0.487 | 0.985 | 0.47 | 0.807 | 0.615 | 0.809 |
| CUACUUCAAACCAUCGCUCUG [Fam1A.1 aminoacylation ribozyme variant] | 0.532 | 0.394 | 0.762 | 0.878 | 0.915 | 0.982 |
| CUACUUCAAACCAUCGGGCUG [Fam1A.1 aminoacylation ribozyme variant] | 1.77 | 0.939 | 2.16 | 1.97 | 1.73 | 1.92 |
| CUACUUCAAACCAUCGGUUUG [Fam1A.1 aminoacylation ribozyme variant] | 0.624 | 0.597 | 0.74 | 0.815 | 0.895 | 1.03 |
| CUACUUCAAACGAUCGAUCUG [Fam1A.1 aminoacylation ribozyme variant] | 0.354 | 0.425 | 0.47 | 0.55 | 0.485 | 0.584 |
| CUACUUCAAACGAUCGGUCUG [Fam1A.1 aminoacylation ribozyme variant] | 1.31 | 1.42 | 0.677 | 0.65 | 0.68 | 0.763 |
| CUACUUCAAACUAUCGGCCUG [Fam1A.1 aminoacylation ribozyme variant] | 1.66 | 0.97 | 1.13 | 1.2 | 0.909 | 1.06 |
| CUACUUCAAACUAUCGGUCUG [Fam1A.1 aminoacylation ribozyme variant] | 0.905 | 1.15 | 0.818 | 0.906 | 0.779 | 0.905 |
| CUACUUCAAAGAAUCAGUCUG [Fam1A.1 aminoacylation ribozyme variant] | 1.7 | 3.34 | 0.677 | 0.759 | 0.68 | 0.803 |
| CUACUUCAAAGAAUCGGUCUA [Fam1A.1 aminoacylation ribozyme variant] | 0.542 | 1.2 | 0.608 | 0.748 | 0.737 | 0.665 |
| CUACUUCAAAGAAUCGGUUUG [Fam1A.1 aminoacylation ribozyme variant] | 4.68 | 5.29 | 0.933 | 0.892 | 0.845 | 0.785 |
| CUACUUCAAAGAAUGGGUCUG [Fam1A.1 aminoacylation ribozyme variant] | 0.459 | 0.335 | 0.708 | 0.79 | 0.74 | 0.665 |
| CUACUUCAAAUAAACGGUCUG [Fam1A.1 aminoacylation ribozyme variant] | 0.692 | 0.881 | 0.537 | 0.719 | 0.71 | 0.777 |
